In the DeepSol protein solubility set:

Assay: soluble on expression in E. coli; label from the status in PepcDB or PDB records

MKVEELAESISSYAVGILKEEGIEELFPPQAEAVEKVFSGKNLLLAMPTAAGKTLLAEMAMVREAIKGGKSLYVVPLRALAGEKYESFKKWEKIGLRIGISTGDYESRDEHLGDCDIIVTTSEKADSLIRNRASWIKAVSCLVVDEIHLLDSEKRGATLEILVTKMRRMNKALRVIGLSATAPNVTEIAEWLDADYYVSDWRPVPLVEGVLCEGTLELFDGAFSTSRRVKFEELVEECVAENGGVLVFESTRRGAEKTAVKLSAITAKYVENEGLEKAILEENEGEMSRKLAECVRKGAAFHHAGLLNGQRRVVEDAFRRGNIKVVVATPTLAAGVNLPARRVIVRSLYRFDGYSKRIKVSEYKQMAGRAGRPGMDERGEAIIIVGKRDREIAVKRYIFGEPERITSKLGVETHLRFHSLSIICDGYAKTLEELEDFFADTFFFKQNEISLSYELERVVRQLENWGMVVEAAHLAPTKLGSLVSRLYIDPLTGFIFHDVLSRMELSDIGALHLICRTPDMERLTVRKTDSWVEEEAFRLRKELSYYPSDFSVEYDWFLSEVKTALCLKDWIEEKDEDEICAKYGIAPGDLRRIVETAEWLSNAMNRIAEEVGNTSVSGLTERIKHGVKEELLELVRIRHIGRVRARKLYNAGIRNAEDIVRHREKVASLIGRGIAERVVEGISVKSLNPESAAALEHHHHHH
soluble on expression in E. coli: soluble

MSLTIKLITFDLDDTLWDTAPVIVSAEATLRQWLTEHAPNLGGVPVEHLWAIRERVLLAQPNLKHRISALRRQVLFHALEEAGYDHAQANQLADQSFEVFLHARHQLEIFPEVQPTLEALANHFALGVVTNGNADVRRLGLADYFKFALCAEDIGIAKPDARLFHEALQRGEATADTAVHIGDHPGDDIAGAQQAGLRAIWFNPNGKTWEAEHAPDAEIRSLNELPGLLARWHRGAEGHHHHHH
soluble on expression in E. coli: soluble

MGSDKIHHHHHHMNALPLVSVVVPNYNYKRYLNLRIQSILQQTYQNIELILLDDASTDGSEEVLSDYQDHAKVSHILLNEHNTGNPFKQWFKGMQLAKGKYIWIAEADDLCELTFLEKVVPLMEKYQQAAVCFAGSKYIDKDGNVLSYDMNKWKSAIPPYAVFNGKTYAEHNLYWRSYIANASSAIFRKSMVNAQNMEQCLQMRYSGDWLFWFYMAMQGDIIERYEVLNYFRQHNQKVTVKAENNGGGKSEDIEIVRIMEQHLTHLSRYKRCIRRGMLYNRIAKLSTTDRVKLQLWELLRQKLNGTRKDGRLERLNRIARLFCPFVLTMKRDRLTPSREIG
soluble on expression in E. coli: not soluble

MAHHHHHHMDGQSSSPAEPASGSVALLYDYTTANDAPVEVHRAAAGRLACSYRAECLAIENGFGHLMPPCLGTSQSPTRILVATDSLSAIEAFRCPLAMRDRVTEAILIMPLSLVKRGRPVEFIFSPSHCGIPRNEATDEEATISISLPQEGIPIWHVDFLTAVKRLCWKEFQEEAEGAYTARQAFVGVARTPFLISSQK
soluble on expression in E. coli: not soluble

MGSDKIHHHHHHMDQFDRTPLMTADSEALATARRVLATEARALDSLATSLGDAFLKAVTLIEGAPGRVVVTGMGKSGHVARKIAATMASTGCPAFYVHPAEASHGDLGMVTRDDAVVALSNSGETPELSDVIAYTRRFEIPLIGITSRDGSTLAAASDVALVLPPNPEACPMGLAPTTSTTLMLALGDALAVTLLERKGFTAADFQVFHPGGKLGQRLLKVTDLMHGGDGLPLVGTEASMADVLLVMTAKSLGCAGVIDSGGKLAGVLTDGDLRRHMSPDLLTAKAAEVMTASPRTVPPNLLAAEALRQMNERSITSLFVVESDGRPVGVLHVHDCLRAGLA
soluble on expression in E. coli: not soluble

MLTETEGRAAVKLARKTIEIFLSKGKSPRPDASGVELSPVFEEYRGVFVTLTEGGLLRGCIGHPYPDSTLKEAILDSAISAATRDPRFPTVEQDEMKNILVEVTILTQPEKINASPKELPDKVEIGKHGLIVKQGYCQGLLLPQVAPENDMDSIDFLSHTCMKAGLSPDAWVKGAEVYCFEGQIFKEKEPDGEVIEEKFLEHHHHHH
soluble on expression in E. coli: soluble

MGSDKIHHHHHHMTIRYTFGGDEFIFVEISESMSLDAFFKGTAITRELRRRNVPGVTEICPANASYQVRYDPDVIEPDTLLALLKTIEAEVGEAALNIDTRIVEVPVLYNDPWTHETLMRFRERHQAPESTDLEYAARVNGKRDIDEFIAAHAGSPWFVSMVGFVAGLPFMYQMVERERQLQVPKYLRPRTDTPKLTVGHGGCFGCIYSVRGAGGYQMFGVTPAPIFDPAQRLDYLRDFMVFFRPGDIVKFKPIDRAEYDAAVAAVEAGTFTLRVKPVRFALEAFLRDPHAYNRSLVEVLDAN
soluble on expression in E. coli: not soluble

AHHHHHHGSKERLEKLVKFMDENSIDRVFIAKPVNVYYFSGTSPLGGGYIIVDGDEATLYVPELEYEMAKEESKLPVVKFKKFDEIYEILKNTETLGIEGTLSYSMVENFKEKSNVKEFKKIDDVIKDLRIIKTKEEIEIIEKACEIADKAVMAAIEEITEGKREREVAAKVEYLMKMNGAEKPAFDTIIASGHRSALPHGVASDKRIERGDLVVIDLGALYNHYNSDITRTIVVGSPNEKQREIYEIVLEAQKRAVEAAKPGMTAKELDSIAREIIKEYGYGDYFIHSLGHGVGLEIHEWPRISQYDETVLKEGMVITIEPGIYIPKLGGVRIEDTVLITENGAKRLTKTERELL
soluble on expression in E. coli: not soluble

MRVVIQRVKGAILSVRKENIGENEKELEIISEIKNGLICFLGIHKNDTWEDALYIIRKCLNLRLWNNDNKTWDKNVKDLNYELLIVSQFTLFGNTKKGNKPDFHLAKEPNEALIFYNKIIDEFKKQYNDDKIKIGKFGNYMNIDVTNDGPVTIYIDTHDINLNK
soluble on expression in E. coli: soluble

MSKHKVSPATIAKNKKALHDYTILEKFEAGIVLQGWEVKSIRAGKVQMVDSHVHIKHGEAWLFNCLITPLLSASTHVVADAAATRKLLLNRREINKIMGRIEQKGFTCIPLSMYWKGPRVKVEIALAQGKKVHDKRQAQKDKDWAREKDRLFKKAYK
soluble on expression in E. coli: not soluble

MARIRVQFICQNCGTVHSRWAGKCNSCGEWNSLIEENANSGIGTGPKQNVHKGRVVALTSLSGNIEDAPRIHSGIAELDRVTGGGFVRGSVLLVGGDPGIGKSTLLTQTAAALSRKGHHVIYVSGEEAVAQICLRAQRLDAANTKVKLAAETNVEDILATLSEHKNLDMVIIDSIQTLWSDAADSAPGTVTQVRISAQAMIRFAKKTGAAVVLVGHVTKEGQIAGPRVVEHMVDAVLYFEGEGGHHYRILRTVKNRFGPTDEIGVFEMSDKGLREVINPSELFLGERNEKAPGAAVFAGMEGTRPILVEIQALVAPSSLGTPRRAVVGWDGNRLSMILAVLEAHCGVRFGQHDVYLNVAGGYRISEPAADLAVAAALVSSLTNIPLPTEYVYFGEISLSGAIRAVSHSAQRINEAQKLGFQGSVQPTTTTKMIKLPTFQQKTFSELSELIAALATGK
soluble on expression in E. coli: not soluble

MKLNFNPVTKEEIHQLETALLVGTLFRKEVLEEIRNSAERLTWVDSLAVAAGALARAKAGMTASEIAEELGRTEATIREHVKGETKAGKLVNETYELLKEGKLSVEGLIGEGIKVVTTTTGSDEKLQEVKKELEEIKQKLESVIQKL
soluble on expression in E. coli: soluble

MAKTIRDESTASAYWAAVNTFCALKDVHVIADAPVGCYNLAGVAVMDYTDAIPYLENLTPTSLTEREISSSGSSQIVQETIEKLMGSGKQLILVSSAESEMIGSDHQHMLAMKYPSVRFFASDSLGENEWQGRDRALAWLFDQFDDGQPSQIEPGTVSIIGPTYGCFNSPADLAEVKRLVTGAGGRVAHVYPFESKAAEITKLKNSAAIVVMYREFGAALAEKLGRPVLYAPFGIEETDRFIGKIGRLCGTPEQATRFIAEEKRTTLSPVWDLWRGPQSEWFPTIRFGVVASKSYADGIKHVLGDELGMQCLFSLDSAEVDNNAVRKEIVQKQPQFLYGRMPDKIYLAEADAKSRFIPAGFPGPIVRRALGTPFMGHSGVVWLVQEIVNALYDTLFNFLPITRRQQAAAPTKPLKWTPEANAILDGIVRKAPFISQISFGRELKRKAENLAASRGADTVTPDILQQLG
soluble on expression in E. coli: soluble

MIAGYIMAAENQTLNQWTINQLGITRGDSILEVGFGPGYCMQQMLKREKDVHLHGIDVSEAMLKLAARRVKPKGVRLIQGSIETFPLPASFYDKVISVNNYTIWNDQTKGIKQIYRALKPGGKAAITMQPREADASPEKTKSFGRQMIADFKAAGFEDIDIQFKNIKPELSVCATAKKPATLEHHHHHH
soluble on expression in E. coli: not soluble

MTEFDNLTWLHGKPQGSGLLKANPEDFVVVEDLGFTPDGEGEHILLRILKNGCNTRFVADALAKFLKIHAREVSFAGQKDKHAVTEQWLCARVPGKEMPDFSAFQLEGCKVLEYARHKRKLRLGALKGNAFTLVLREISDRRDVETRLQAIRDGGVPNYFGAQRFGIGGSNLQGALRWAQSNAPVRDRNKRSFWLSAARSALFNQIVHQRLKKPDFNQVVDGDALQLAGRGSWFVATSEELPELQRRVDEKELMITASLPGSGEWGTQRAALAFEQDAIAQETVLQSLLLREKVEASRRAMLLYPQQLSWNWWDDVTVELRFWLPAGSFATSVVRELINTMGDYAHIAELEHHHHHH
soluble on expression in E. coli: soluble

MSKIRVLSVDDSALMRQIMTEIINSHSDMEMVATAPDPLVARDLIKKFNPDVLTLDVEMPRMDGLDFLEKLMRLRPMPVVMVSSLTGKGSEVTLRALELGAIDFVTKPQLGIREGMLAYSEMIAEKVRTAARARIAAHKPMAAPTTLKAGPLLSSEKLIAIGASTGGTEAIRHVLQPLPLSSPAVIITQHMPPGFTRSFAERLNKLCQISVKEAEDGERVLPGHAYIAPGDKHMELARSGANYQIKIHDGPPVNRHRPSVDVLFHSVAKHAGRNAVGVILTGMGNDGAAGMLAMYQAGAWTIAQNEASCVVFGMPREAINMGGVSEVVDLSQVSQQMLAKISAGQAIRI
soluble on expression in E. coli: soluble

MSLNPVDRPLLDIGLTRLEFLRISGKGLAGLTIAPALLSLLGCKQEDIDSGTVGLINTPKGVLVTQRARCTGCHRCEISCTNFNDGSVGTFFSRIKIHRNYFFGDNGVGSGGGLYGDLNYTADTCRQCKEPQCMNVCPIGAITWQQKEGCITVDHKRCIGCSACTTACPWMMATVNTESKKSSKCVLCGECANACPTGALKIIEWKDITEGHHHHHH
soluble on expression in E. coli: not soluble

GYSQYNIHGNQFYNLGIDYAYRWHRFSFQGETAMGKQGSATLNRFQYSPVEGTQLMIVQRYYSYNYWAMFAHSFGEGSAVQNEQGYYLGVETSPFRYWHILASFDLFSFPWKKYRISKPSRGMDGLLQATFTPHNNLTMYLKYRYKQKERDLTGSKENLTLPIFHHQLRYRLNYFYGDVFSCRTTLDYNHFHSQDRAASKGYQVTQMMSSQLPWTRLFADVQGSYFSTDDYDSRVYVSEKGLLYTFYTPSFQGRGFRCAVRLRYEPNEHWMFITKFGETVYLDRNEIGSGNDLILGNKKADVQMQLRIKF
soluble on expression in E. coli: not soluble

MGSDKIHHHHHHMRRLPHVTWLRSFEAAARHSSFSAAAEELHLTPAAVSQQIRQLEHHLGFQLFKRLPKGVELTDIGQAYAIPVRKSFVQMQEATDGLFRVQSKSVLRVRCSISFAALILAPLLRDFAEIHPDIDVELSTAVWSDRMEGAGVDLDIRYGAACWPEQNVHPLPVEEATLVCHPDYAAQLGSALDPAWLGAADIVQIVGSETDWDRYLRLCGIDTPRPRHWMKADSSLIALQILSAGRGCALISRSFARQALSEGRLVAPFDLSLPMQESFVLVERDDLRENPGLRKLVDWLLTQRL
soluble on expression in E. coli: not soluble

YNSGKLEEFVQGNLERECMEEKCSFEEAREVFENTERTTEFWKQYEEEEEE
soluble on expression in E. coli: soluble

MGSDKIHHHHHHMTEWVPVIYGIGLDAAGRCQHYHLETDIAALWCRRCQHYYACYRCHDTLCQHTFVASAPTDLAVMCGACRYRMTVDRYHEGQCPHCHRPFNPRCRLHDQVYFEK
soluble on expression in E. coli: not soluble
